Results: patent US11766432B2, “Cleavable conjugates of catechol compounds and water-soluble polymers and methods of treatment using the same” (SERINA THERAPEUTICS, INC., priority 2018, dated 2023)
Where “and” joins values, the source holds several entries; their conditions need not be identical. Equal values may be shown once. Where a name gives a salt, the structure may show the parent alone. Read-outs that look alike come from different tables or passages of the source.

Experiments:
skin at injection site [1] = conditions: for tolerability after SC injection: primates, SC injection 3.0 mg/kg (apomorphine equivalents), multiple doses; for skin at the site of injection 12 hours after the third dose (day 14): weekly SC injection 3.0 mg/kg (apomorphine equivalents)
Procedure: Non-naïve female cynomolgus monkeys were used in the study. […] They were assigned to three groups with 3 animals per group.
The test articles were dosed subcutaneously (as described in Table 6) in the right shoulder on days 0 and 14 and in the left shoulder on days 7 and 21, of each monkey. […] Photographs were taken to study the severity of the reactions and observations that were recorded.
To determine if the Apo-A, Apo-B, and Apo-G conjugates induced skin reactions at a concentration of 3.0 mg/kg (as compared to the 1.5 mg/kg dose described in Examples 18 and 20), all animals were/will be monitored daily for these skin reactions. Photographs were/will be taken to study the skin reactions and observations were/will be recorded. Bases on the presence of erythema and swelling, the skin reactions were/will be recorded as none, slight, well defined, moderate and severe.

[2] = single SC injection 1.5 mg/kg; for PR (percent of released apomorphine): AUC0-last(free) relative to AUC0-last(total); for PR (percent of released apomorphine) / AUC0-168 / AUC0-inf / AUC0-last / CL/F obs / Cmax / Tmax: mean; for time by which drug is cleared and BLQ / AUC0-168 / AUC0-inf / AUC0-last / CL/F obs / Cmax / Tmax: total apomorphine, plasma
[3] = Pharmacokinetics of free apomorphine in plasma after single SC infusion/injection; conditions: for dose dumping (burst effect): after single SC administration 1.5 mg/kg; for AUC0-168 / AUC0-inf / AUC0-last / Cmax / Tmax / time post-dose by which drug is completely cleared and below the limit of quantification (BLQ) / increase of Tmax as compared to apomorphine HCl / increase of t1/2z as compared to apomorphine HCl: free apomorphine, single SC 1.5 mg/kg; for AUC0-168 / AUC0-inf / AUC0-last / Cmax / Tmax / time post-dose by which drug is completely cleared and below the limit of quantification (BLQ): plasma; for AUC0-168 / AUC0-inf / AUC0-last / Cmax / Tmax: female monkeys, mean n=3; for period of sustained release of apomorphine: single SC injection 1.5 mg/kg, monkeys
skin at injection site [4] = conditions: for tolerability after SC injection: primates, single SC injection 1.5 mg/kg
in vivo = conditions: female, cynomolgus monkey, sc, 1.5 mg/kg
[5] = female, cynomolgus monkey, in vivo, sc, 1.5 mg/kg
[6] = single SC 1.5 mg/kg, per animal

Row | Molecule | tolerability after SC injection (skin at injection site [1]) | skin at the site of injection 12 hours after the third dose (day 14) (skin at injection site [1]) | PR (percent of released apomorphine) [2] [%] | time by which drug is cleared and BLQ [2] [h] | AUC0-168 [2] [ng·h/mL] | AUC0-inf [2] [ng·h/mL] | AUC0-last [2] [ng·h/mL] | CL/F obs [2] [mL/min/kg] | dose dumping (burst effect) [3] | AUC0-168 [3] [ng·h/mL] | AUC0-inf [3] [ng·h/mL] | AUC0-last [3] [ng·h/mL] | Cmax [3] [ng/mL] | Tmax [3] [h] | time post-dose by which drug is completely cleared and below the limit of quantification (BLQ) [3] [h] | increase of Tmax as compared to apomorphine HCl [3] [times] | increase of t1/2z as compared to apomorphine HCl [3] [times] | period of sustained release of apomorphine [3] [days] | tolerability after SC injection (skin at injection site [4]) | Observations (skin reaction), Day 1 to Day 15 (skin at injection site [4]; [6]) | further results
1 | POZ10p20k[Apo(2-methylpropanoate)(4-triazolebutanoate)]10 [POZ-Apomorphine B] | well tolerated | appeared normal with no sign of erythema and swelling | 5.5 | > 240 | 8317 | 16456 | 11610 | 1.52 | no evidence of dose dumping | 478 | 968 | 640 | 3.5 | 104 | > 240 | 26 | 84.3 | 10 | well tolerated | Day 1 to Day 15: No erythema and swelling. | Cmax ([2]; 1.5 mg/kg): 72.6 ng/mL and 72.7 ng/mL; Tmax ([2]; 1.5 mg/kg): 136.0 h; Observations (skin reaction), Day 15 (skin at injection site [4]; [6]): Day 15: Skin appears normal.
2 | CN1CCc2cccc3c2[C@H]1Cc1ccc(O)c(O)c1-3 [apomorphine HCl, Apomorphine hydrochloride] |  |  |  |  |  |  |  |  |  |  |  |  |  |  |  |  |  |  |  |  | AUC0-inf (in vivo): 90.2 ng·h/mL; CL/F (in vivo): 289 mL/min/kg; Cmax (in vivo): 10.6 ng/mL; Vd/F (in vivo): 43.6 L/kg; AUC(0-t) (in vivo; cynomolgus): 89.8 ng·h/mL; Cmax (in vivo; cynomolgus): ~10.6 ng/mL; Tmax (in vivo; cynomolgus): 4 h; time post-dose by which drug is completely cleared and below the limit of quantification (BLQ) [5]: ≤ 24 h; Observations (skin reaction), Day 15 (skin at injection site [4]; female, cynomolgus monkey, in vivo, sc, 1.5 mg/kg, 15 day): Day 15: Skin appears normal.
3 | POZ10p20k[Apo(4-butanoate)(4-triazolebutanoate)]10 [POZ-Apomorphine A] | well tolerated | appeared normal with no sign of erythema and swelling | 4.8 | ≤ 240 | 13368 | 138986 | 13835 | 1.82 | no evidence of dose dumping | 647 | 666 | 656 | 6.6 | 88 | ≤ 240 | 22 | 13.2 | 5 | well tolerated | Day 1 to Day 15: No erythema and swelling. | Cmax [2]: 151.3 ng/mL; Tmax [2]: 88 h; Observations (skin reaction), Day 15 (skin at injection site [4]; [6]): Day 15: Skin appears normal.
